# Results taken from patent publication US20260209362A1 (VIB VZW, published 2026).
# Positions count from the first letter of the chain named.
# T1: biotinylated recombinant mouse IL-12Rβ2 (mouse, UniProt P97378 24-637, random biotinylated)
# T1 construct: Recombinant protein produced in-house, biotinylated; also called mIL-12RB2; mouse IL-12RB2
# T1 sequence: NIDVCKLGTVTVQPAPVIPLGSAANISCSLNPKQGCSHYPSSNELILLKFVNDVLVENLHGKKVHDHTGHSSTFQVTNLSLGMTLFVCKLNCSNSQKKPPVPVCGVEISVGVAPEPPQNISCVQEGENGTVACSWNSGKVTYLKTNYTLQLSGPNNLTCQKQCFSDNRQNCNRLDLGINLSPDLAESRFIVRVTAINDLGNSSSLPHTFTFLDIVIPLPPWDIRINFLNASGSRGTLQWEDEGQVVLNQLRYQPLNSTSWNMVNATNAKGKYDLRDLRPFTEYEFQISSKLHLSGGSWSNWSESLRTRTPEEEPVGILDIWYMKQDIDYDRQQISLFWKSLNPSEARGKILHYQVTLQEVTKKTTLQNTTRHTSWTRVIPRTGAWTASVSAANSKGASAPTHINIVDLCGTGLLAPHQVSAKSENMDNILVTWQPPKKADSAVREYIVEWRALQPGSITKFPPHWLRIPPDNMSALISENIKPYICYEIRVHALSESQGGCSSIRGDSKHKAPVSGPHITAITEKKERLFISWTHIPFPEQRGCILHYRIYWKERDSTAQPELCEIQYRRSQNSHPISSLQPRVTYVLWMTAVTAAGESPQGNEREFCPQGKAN
# T2: biotinylated human recombinant IL-12Rβ2 (produced in-house) (human, UniProt Q99665 24-622, random biotinylated)
# T2 construct: Soluble recombinant protein used for panning, ELISA and BLI; also called hIL-12RB2; hIL12RB2
# T2 sequence: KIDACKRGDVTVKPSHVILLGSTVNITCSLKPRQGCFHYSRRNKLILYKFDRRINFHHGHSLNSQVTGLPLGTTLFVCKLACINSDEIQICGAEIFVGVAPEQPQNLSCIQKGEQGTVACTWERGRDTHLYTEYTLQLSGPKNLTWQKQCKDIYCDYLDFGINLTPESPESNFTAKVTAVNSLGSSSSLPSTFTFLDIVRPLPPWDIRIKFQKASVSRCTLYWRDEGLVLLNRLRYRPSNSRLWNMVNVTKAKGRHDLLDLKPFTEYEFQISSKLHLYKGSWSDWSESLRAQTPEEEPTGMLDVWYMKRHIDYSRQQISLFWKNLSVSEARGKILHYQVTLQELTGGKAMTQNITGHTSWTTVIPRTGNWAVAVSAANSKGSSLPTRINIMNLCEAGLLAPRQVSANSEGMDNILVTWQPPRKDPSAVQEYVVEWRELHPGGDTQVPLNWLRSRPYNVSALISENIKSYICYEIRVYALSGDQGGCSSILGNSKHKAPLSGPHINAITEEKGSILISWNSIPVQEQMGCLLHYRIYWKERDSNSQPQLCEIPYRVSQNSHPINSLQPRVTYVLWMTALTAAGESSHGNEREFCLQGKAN
# T3: biotinylated recombinant human IL-12Rβ2 (human, UniProt Q99665 24-622, random biotinylated)
# T3 construct: Recombinant protein produced in-house, biotinylated; also called hIL-12RB2; human IL-12RB2
# T3 sequence: T2 sequence
# T4: biotinylated recombinant human IL-12Rβ2 (produced in-house) (human, UniProt Q99665 24-622, randomly biotinylated)
# T4 construct: also called hIL-12RB2; human IL-12RB2
# T4 sequence: T2 sequence
# T5: biotinylated mouse recombinant IL-12Rβ2 (produced in-house) (mouse, UniProt P97378 24-637, random biotinylated)
# T5 construct: Soluble recombinant protein used for panning, ELISA and BLI; also called mIL-12RB2; mIL12RB2
# T5 sequence: T1 sequence
# T6: biotinylated recombinant mouse IL-12Rβ2 (produced in-house) (mouse, UniProt P97378 24-637, randomly biotinylated)
# T6 construct: also called mIL-12RB2; mouse IL-12RB2
# T6 sequence: T1 sequence
# T7: human IL-12Rβ2 expressed on cells (human, UniProt Q99665 24-862)
# T7 construct: the cell lines are described by plasmid or cDNA number only; also called hIL-12RB2; HEK293T transiently transfected with human IL-12Rβ2
# T7 sequence: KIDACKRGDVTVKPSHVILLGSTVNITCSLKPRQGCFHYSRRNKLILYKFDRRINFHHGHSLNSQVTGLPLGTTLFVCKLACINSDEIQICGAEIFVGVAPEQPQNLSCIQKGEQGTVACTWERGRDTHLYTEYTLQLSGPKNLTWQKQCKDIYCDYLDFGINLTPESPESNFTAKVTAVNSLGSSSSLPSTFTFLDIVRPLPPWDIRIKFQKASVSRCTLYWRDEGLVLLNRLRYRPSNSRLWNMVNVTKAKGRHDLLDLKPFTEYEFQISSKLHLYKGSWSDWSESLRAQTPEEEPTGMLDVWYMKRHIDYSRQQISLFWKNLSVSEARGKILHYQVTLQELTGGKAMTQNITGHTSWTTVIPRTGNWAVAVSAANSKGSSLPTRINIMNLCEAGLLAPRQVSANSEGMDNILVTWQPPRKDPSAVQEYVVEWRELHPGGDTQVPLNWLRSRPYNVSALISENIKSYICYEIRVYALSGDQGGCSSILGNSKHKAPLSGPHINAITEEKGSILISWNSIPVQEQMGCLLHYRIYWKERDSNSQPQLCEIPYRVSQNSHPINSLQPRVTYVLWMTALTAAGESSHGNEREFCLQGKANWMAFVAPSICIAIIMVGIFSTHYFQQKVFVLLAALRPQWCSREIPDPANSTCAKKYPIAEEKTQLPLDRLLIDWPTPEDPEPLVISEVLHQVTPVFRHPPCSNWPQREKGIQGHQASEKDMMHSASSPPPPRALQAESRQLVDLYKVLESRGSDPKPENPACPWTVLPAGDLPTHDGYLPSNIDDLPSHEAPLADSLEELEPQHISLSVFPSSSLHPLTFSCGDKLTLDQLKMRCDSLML
# B1: anti-IL-12Rβ2 VHH clone 20391 (VHH, not shown: small tags and cut ends)
# VHH: QVQLQESGGGLVQAGGSLRLSCAASGRTVDSYAMGWFRQTPGKEREFVAASWGGGSTYYADSVKGRFTISRDNVKNTMYLQMDSLKPEDTAVYYCAAGPTYYSGPINDNWEGRYDSWGQGTQVTVSS
# notes: tested as periplasmic extract; also called 3CRH93
# B2: anti-IL-12Rβ2 VHH clone 20389 (VHH, not shown: small tags and cut ends)
# VHH: QVQLQESGGGLVRAGGSLRLSCAASGHTFSNYVMGWFRQAPGKEREFVAAISWGGSNTYYADSVKGRFTISRDNAKNTVYLQMNSLKVEDTAVYYCAADRRFEGWNYYSMDYWGKGTQVTVSS
# notes: tested as periplasmic extract; also called 3CRH73
# B3: anti-IL-12Rβ2 VHH clone 20404 (VHH, not shown: small tags and cut ends)
# VHH: QVQLQESGGGLVQAGGSLRLSCAASGRTFSSYAMGWFRQVPGKERDFVAAVSWGGLSTYYADSVEGRFTISRDNAKNTVFLQMNSLKPEDTAVYYCAADRAYEGLGYGEYEYWGQGTQVTVSS
# notes: tested as periplasmic extract; also called 3CAHS153
# B4: anti-IL-12Rβ2 VHH clone 20370 (VHH, not shown: small tags and cut ends)
# VHH: QVQLQESGGGLVQTGGSLRLSCVASGRTFNWSAMGWFRQPPGKEREVVATISGGGTSAYYADSVKGRFTISRDGAKNTLYLQMNSLKPEDTAVYYCAADRVDYRMTLTQNGNHYWGQGTQVTVSS
# notes: tested as periplasmic extract; also called 2CRH76
# B5: anti-IL-12Rβ2 VHH clone 20358 (VHH, not shown: small tags and cut ends)
# VHH: QVQLQESGGGSVQPGGSLRLSCGASGFTFSSFGMHWFRQAPGKGQEWAATISSSGGTTYYSDSVKGRFTISRDNAKNTLYLQMNSLKPEDTALYYCARDVTGAVRGQGTQVTVSS
# notes: tested as periplasmic extract; also called 3CAH34
# B6: anti-IL-12Rβ2 VHH clone 20408 (VHH, not shown: small tags and cut ends)
# VHH: B5 VHH with P14A, A48V
# notes: tested as periplasmic extract; also called 3CAHS172
# B7: anti-IL-12Rβ2 VHH clone 20372 (VHH, not shown: small tags and cut ends)
# VHH: QVQLQESGGGLVQAGGSLRLSCAASARTESMYAMAWFRQAPGKEREIVAGIIQSGGTTYISDYMKGRFSIDRGNAENTVYLQMDSLKPEDTAVYSCAAKVSSGTPSDIQISQSRWYDHWGQGTQVTVSS
# notes: tested as periplasmic extract; also called 2CRH82
# B8: anti-IL-12Rβ2 VHH clone 3CRHS54 (clone ID 20422) (VHH)
# VHH: QVQLQESGGGLVQPGGSLRLSCTASGSIVSIYNMDWYRQAPGNEREWVASITSSGDPYYDGSAKGRFTISRDNAKMTVYLQMNSLEPEDTAVYFCKVPTEKGNYWGQGTQVTVSS
# notes: Tested as periplasmic extract (P.E.) from the pMECS vector; not shown: C-terminal HA tag
# B9: anti-IL-12Rβ2 VHH clone 2CAMS29 (VHH)
# VHH: QVQLQESGGGLVQAGGSLRLSCAASGLTSSTYVIGWFRQAPGKEREFVAAIMLSGGTTIYADSLKGRCTIYKDNAKNTVYLQMNSLKLEDTAVYYCASGLIYRYSDFPRSQKYNFWGQGTQVTVSS
# notes: Tested as periplasmic extract; CDR3 group 54; also called 20534
# B10: anti-IL-12Rβ2 VHH clone 2CAMS52 (VHH)
# VHH: QVQLQESGGGLVQPGASLRLSCATSGPTLSTYAMGWFRQAPGKEREVVATISWSGGRVTYVDSVKGRFTISRDNAKNTAYLQMNRLRPDDTAVYTCAARESDYGAYDYWGQGTQVTVSS
# notes: Tested as periplasmic extract; CDR3 group 55; also called 20535
# B11: anti-IL-12Rβ2 VHH clone 2CRMS29 (VHH)
# VHH: QVQLQESGGGLVQAGGPLRLSCAASGRTFSGSAMGWFRQAPGKEREFVAAITWVGGFTYYADSVKGRFTISRDNAKNTVYLQMNNLSPEDTAVYSCAAQAYHKSGYYYPPLYDYWGQGTQVTVSS
# notes: Tested as periplasmic extract; CDR3 group 52; also called 20521
# B12: anti-IL-12Rβ2 VHH clone 3CRHS51 (clone ID 20421) (VHH)
# VHH: QVQLQESGGGLVQPGGSLRLSCAASGFTFSTYAMSWVRQAPGKGLEWVSAVNSGGLSTDYADSVEGRFTISRDDAKNMLFLQMNRLKPEDTARYYCAKYEDCSDYVCDRAGYWGQGTQVTVSS
# notes: Tested as periplasmic extract; also called 3CRHSS1; not shown: C-terminal HA tag
# Target: T1, biotinylated recombinant mouse IL-12Rβ2
# Experiment: ELISA, periplasmic extract on biotinylated mIL-12Rβ2, signal over control wells
row,ELISA binding mIL-12RB2/control,Binder
1,1.38 ratio,B1
2,1.18 ratio,B2
3,1.08 ratio,B3
4,0.937 ratio,B4
5,1.12 ratio,B5
6,1.11 ratio,B6
7,1.77 ratio,B7

# Target: T2, biotinylated human recombinant IL-12Rβ2 …
# Experiment: ELISA, periplasmic extract on biotinylated human IL-12Rβ2; signal over streptavidin control well
row,hIL12RB2/control (ELISA),Binder
1,7.85 ratio,B8

# Target: T3, biotinylated recombinant human IL-12Rβ2
# Experiment: BLI (Octet), periplasmic extract on biotinylated hIL-12Rβ2 on streptavidin tips, 1:1 model
row,koff,Binder
1,0.00486 s⁻¹,B1
2,0.0052 s⁻¹,B2
3,0.00302 s⁻¹,B3
4,0.00354 s⁻¹,B4
5,0.00636 s⁻¹,B5
6,0.00383 s⁻¹,B6
7,0.00274 s⁻¹,B7

# Target: T4, biotinylated recombinant human IL-12Rβ2 …
# Experiment: ELISA, periplasmic extract on biotinylated human IL-12Rβ2; control streptavidin-coated blocked wells
row,ELISA binding hIL-12RB2/control,Binder
1,1.06 ratio to control,B9
2,0.969 ratio to control,B10
3,1.05 ratio to control,B11

# Target: T2, biotinylated human recombinant IL-12Rβ2 …
# Experiment: BLI (Octet Red), periplasmic extract on biotinylated human IL-12Rβ2 on streptavidin tips, 1:1 model
row,koff,Binder
1,0.00272 s⁻¹,B8
2,0.0043 s⁻¹,B12

# Target: T3, biotinylated recombinant human IL-12Rβ2
# Experiment: BLI (Octet), periplasmic extract on biotinylated hIL-12Rβ2 on streptavidin tips
row,Response,Binder
1,0.426,B1
2,0.565,B2
3,0.163,B3
4,0.479,B4
5,0.69,B5
6,0.388,B6
7,0.426,B7

# Target: T2, biotinylated human recombinant IL-12Rβ2 …
# Experiment: BLI (Octet Red), periplasmic extract on biotinylated human IL-12Rβ2 on streptavidin tips
row,Response,Binder
1,0.203,B8
2,0.327,B12

# Target: T5, biotinylated mouse recombinant IL-12Rβ2 …
# Experiment: ELISA, periplasmic extract on biotinylated mouse IL-12Rβ2; signal over streptavidin control well
row,mIL12RB2/control (ELISA),Binder
1,1.25 ratio,B8

# Target: T6, biotinylated recombinant mouse IL-12Rβ2 …
# Experiment: ELISA, periplasmic extract on biotinylated mouse IL-12Rβ2; control streptavidin-coated blocked wells
row,ELISA binding mIL-12RB2/control,Binder
1,6.24 ratio to control,B9
2,6.41 ratio to control,B10
3,5.85 ratio to control,B11

# Target: T3, biotinylated recombinant human IL-12Rβ2
# Experiment: ELISA, periplasmic extract on biotinylated hIL-12Rβ2, signal over control wells
row,ELISA binding hIL-12RB2/control,Binder
1,3.45 ratio,B1
2,6.45 ratio,B2
3,3.32 ratio,B3
4,4.57 ratio,B4
5,5.01 ratio,B5
6,3.49 ratio,B6
7,16.1 ratio,B7

# Target: T5, biotinylated mouse recombinant IL-12Rβ2 …
# Experiment: ELISA, periplasmic extract on biotinylated mouse IL-12Rβ2
row,binding result,Binder
1,no binding,B8
2,no binding,B12

# Target: T7, human IL-12Rβ2 expressed on cells
# Experiment: flow cytometry, periplasmic extract VHH-HA on HEK293T cells transiently expressing human IL-12Rβ2
% cells bound,dMFI,Binder
41.5%,870,B8
46%,1140,B12
